Measured values as given in publication PMC6453860.

B1: ASGP-R1 H1a (asialoglycoprotein receptor 1): N79Q (protein)
parent chain: MTKEYQDLQHLDNEESDHHQLRKGPPPPQPLLQRLCSGPRLLLLSLGLSLLLLVVVCVIGSQNSQLQEELRGLRETFSNFTASTEAQVKGLSTQGGNVGRKMKSLESQLEKQQKDLSEDHSSLLLHVKQFVSDLRSLSCQMAALQGNGSERTCCPVNWVEHERSCYWFSRSGKAWADADNYCRLEDAHLVVVTSWEEQKFVQHHIGPVNTWMGLHDQNGPWKWVDGTDYETGFKNWRPEQPDDWYGHGLGGGEDCAHFTDDGRWNDDVCQRPYRWVCETELDKASQEPPLL
B2: ASGP-R1 H1a (asialoglycoprotein receptor 1): N147Q (protein)
parent chain: B1 parent chain
B3: ASGP-R1 H1a (asialoglycoprotein receptor 1): N79Q/N147Q (protein)
parent chain: B1 parent chain

Assays:
Details in all cases: glycan lost; control: wild-type ASGP-R1 in U87 cells
[1] = SMN2 exon 7 inclusion RT-PCR, single 30 nM dose
[2] = SMN2 exon 7 inclusion RT-PCR, 0-30 µM dose response
[3] = Western blot quantification normalised to tubulin

Row | Protein | other: receptor-mediated GN3-ASO uptake and activity [1] | other: receptor-mediated GN3-ASO uptake and activity, fold_change [2] | expression_or_secretion [3]
1 | B1 | no change | no change | no change
2 | B2 | no change | no change | no change
3 | B3 | no change |  | no change
